According to patent publication US20230039401A1, “COMPOSITIONS AND METHODS FOR TREATING NRP2-ASSOCIATED DISEASES” (aTyr Pharma, Inc., priority 2018, published 2023):
“Also recorded” adds a separate entry of the source.

Assays:
[1] = target: T1, NRP2:Fc-HRS(2-60) interaction (Homo sapiens, UniProt O60462); experiment: SPR competition of known NRP2 ligands with the NRP2:Fc-HRS(2-60) interaction; type: binding; conditions: for effect of ligand on binding of NRP2 to Fc-HRS(2-60) (SPR): NRP2 in the presence of the ligand over immobilized Fc-HRS(2-60); for Competes with Fc-HRS(2-60) for NRP2 binding: SPR, NRP2 binding to immobilized Fc-HRS(2-60) in presence of ligand
T1 construct: Fc (C); purchased R&D Systems 2215-N2
Protocol: (§1) Protein-Protein Interaction studies. […] SPR experiments were conducted on a Bio-Rad ProteOn XPR36 Protein Interaction Array instrument. Proteins were immobilized on different channels of ProteOn GLC sensor chips through amine coupling. Analyte proteins were flowed over the immobilized proteins. The sensor chip surface was regenerated between each analyte run to remove interacting proteins. Data was double referenced against an interspot (untreated chip surface) and a blank surface (activated and deactivated for amine coupling).
Studies were performed to confirm the binding specificity of Neuropilin 2 (NRP2) to Fc-HRS(2-60) using orthologous methods to those used in the large scale Retrogenix screening (Example 1). In a series of experiments, Fc-HRS(2-60) and related proteins were immobilized on SPR chips, and NRP2 and related proteins were flowed as analytes. Upon confirmation of the NRP2:Fc-HRS(2-60) interaction, the dependence on divalent cations was tested as NRP2 is known to have Ca^2+ binding sites. The effects of previously characterized NRP2 ligands on the NRP2: Fc-HRS(2-60) interaction was also tested to determine if these known ligands have competitive effects on the Fc-HRS(2-60) interaction.
(§2) A subset of the known ligands of NRP2 appears to compete binding of Fc-HRS(2-60) to NRP2.

NRP2 = target: T2, NRP2 (Homo sapiens, UniProt O60462); experiment: SPR binding of known ligands to NRP2; conditions: for binding of ligand to NRP2: applicant's system; for Binding to NRP2 observed by SPR: known NRP2 ligands
T2 construct: Fc (C); purchased R&D Systems 2215-N2
Protocol: as §1, §2

[2] = target: T3, cell-expressed NRP2 (NRP2a-GFP fusion protein on HEK293T cells) (Homo sapiens, UniProt O60462); experiment: Immunofluorescence binding of Fc-HRS (2-60) to HEK293T cells overexpressing NRP2v2-GFP; conditions: 175 nM Fc-HRS (2-60)/anti-Fc-PE; pre-incubation with the test agent
T3 construct: host or cells: HEK293T
Protocol: Reagents: • PE anti-human IgG Fc Antibody, clone HP6017, Biolegend cat 409304 • Mouse Anti-HRS monoclonal antibody (1-96) Clone 1C8, Abnova cat H00003035-M01 • Mouse IgG2a, Isotype control antibody (MOPC-173), Biolegend cat 400223 • Recombinant Human VEGF-C Protein, R&D Systems, cat 2179-VC-025/CF • Formaldehyde, 16%, methanol free, Ultra Pure, Polysciences, cat 18814-10 • Hoechst 33342, Trihydrochloride, Trihydrate, ThermoFisher Scientific, cat H1399 • Fc-HRS (2-60) was prepared as described in PCT application PCT/US2014/029699 • Gibco DMEM, High Glucose, ThermoFisher Scientific, cat 11965092 • PolyJet™ In Vitro DNA Transfection Reagent, SignaGen, cat SL100688 • Neuropilin 2 (NRP2) (NM_003872) Human ORF Clone, Origene, cat RG220706 • Collagen Coating Solution, Cell Applications Cat 125-100 • 1×PBS containing 1% BSA, 0.9 mM CaCl2 and 20 mM glucose • Binding buffer containing 1% normal mouse IgG (sigma cat 18765) and 2.5% (Human Fc Receptor Binding Inhibitor, ebioscience 14-9161-73).
Cell culture and transfection. […]
Immunofluorescence assays on cultured cells. Binding and quantitation of Fc-HRS (2-60) to cell-expressed NRP2 was achieved using immunofluorescence microscopy. […] The Hoechst stain was replaced with 1×PBS and subsequently read on an IN Cell Analyzer 2200. 20× images were acquired and analyzed using In Cell Analyzer 1000 Workstation software. […]

| Molecule | effect of ligand on binding of NRP2 to Fc-HRS(2-60) (SPR) [1] | Competes with Fc-HRS(2-60) for NRP2 binding [1] | binding of ligand to NRP2 (NRP2) | Binding to NRP2 observed by SPR (NRP2) | inhibition of Fc-HRS (2-60) binding to cells expressing NRP2a-GFP [2] |
| --- | --- | --- | --- | --- | --- |
| SEMA3C: commercial protein (R&D Systems #5570-S3) (protein, left off: a dimerising Fc or GST) GSSQPQARVYLTFDELRETKTSEYFSLSHHPLDYRILLMDEDQDRIYVGSKDHILSLNINNISQEALSVFWPASTIKVEECKMAGKDPTHGCGNFVRVIQTFNRTHLYVCGSGAFSPVCTYLNRGRRSEDQVFMIDSKCESGKGRCSFNPNVNTVSVMINEELFSGMYIDFMGTDAAIFRSLTKRNAVRTDQHNSKWLSEPMFVDAHVIPDGTDPNDAKVYFFFKEKLTDNNRSTKQIHSMIARICPNDTGGLRSLVNKWTTFLKARLVCSVTDEDGPETHFDELEDVFLLETDNPRTTLVYGIFTTSSSVFKGSAVCVYHLSDIQTVFNGPFAHKEGPNHQLISYQGRIPYPRPGTCPGGAFTPNMRTTKEFPDDVVTFIRNHPLMYNSIYPIHKRPLIVRIGTDYKYTKIAVDRVNAADGRYHVLFLGTDRGTVQKVVVLPTNNSVSGELILEELEVFKNHAPITTMKISSKKQQLYVSSNEGVSQVSLHRCHIYGTACADCCLARDPYCAWDGHSCSRFYPTGKRRSRRQDVRHGNPLTQCRGFNLKAYRNAAEIVQYGVKNNTTFLECAPKSPQASIKWLLQKDKDRRKEVKLNERIIATSQGLLIRSVQGSDQGLYHCIATENSFKQTIAKINFKVLDSEMVAVVTDKWSPWTWASSVRALPFHPKDIMGAFSHSEMQMINQYCKDTRQQHQQGDESQKMRGDYGKLKALINS | do not affect | No | do bind | Yes |  |
| mouse SEMA3F: commercial protein (R&D Systems #3237-S3) (protein, left off: a dimerising Fc or GST) ATPIQDQLPATPRVRLSFKELKATGTAHFFNFLLNTTDYRILLKDEDHDRMYVGSKDYVLSLDLHDINREPLIIHWAASPQRIEECILSGKDGNGECGNFVRLIQPWNRTHLYVCGTGAYNPMCTYVNRGRRAQALPWTQMQVVRGRGSRATDGADRPTPTAPRQDYIFYLEPEKLESGKGKCPYDPKLDTASALINEELYAGVYIDFMGTDAAIFRTLGKQTAMRTDQYNSRWLNDPSFIHAELIPDSAERNDDKLYFFFRERSAEAPQNPAVYARIGRICLNDDGGHCCLVNKWSTFLKARLVCSVPGEDGIETHFDELQDVFVQQTQDVRNPVIYAVFTSSGSVFRGSAVCVYSMADIRMVFNGPFAHKEGPNYQWMPFSGKMPYPRPGTCPGGTFTPSMKSTKDYPDEVINFMRTHPLMYQAVYPLQRRPLVVRTGAPYRLTTVAVDQVDAADGRYEVLFLGTDRGTVQKVIVLPKDDQEVEELMLEEVEVFKEPAPVKTMTISSKRQQLYVASAVGVTHLSLHRCQAYGAACADCCLARDPYCAWDGQACSRYTASSKRRSRRQDVRHGNPIRQCRGFNSNANKNAVESVQYGVAGSAAFLECQPRSPQATVKWLFQRDPSDRRREIRAEDRFLRTEQGLLLRALQLGDRGLYSCTATENNFKHIVTRVQLHVLGRDAVHAALFPPLAVSVPPPPGTGPPTPPYQELAQLLAQPEVGLIHQYCQGYWRHVPPRPREAPGALRPPELQDQKKPRNRRHHPPDT | do not affect | No | do bind | Yes |  |
| PlGf-2/Heparin (protein) LPAVPPQQWALSAGNGSSEVEVVPFQEVWGRSYCRALERLVDVVSEYPSEVEHMFSPSCVSLLRCTGCCGDENLHCVPVETANVTMQLLKIRSGDRPSYVELTFSQHVRCECRPLREKMKPERRRPKGRGKRRREKQRPTDCHLCGDAVPRR |  | Yes |  |  |  |
| VEGF-C: commercial NRP2 ligand protein (R&D Systems) (protein) TEETIKFAAAHYNTEILKSIDNEWRKTQCMPREVCIDVGKEFGVATNTFFKPPCVSVYRCGGCCNSEGLQCMNTSTSYLSKTLFEITVPLSQGPKPVTISFANHTSCRCMSKLDVYRQVHSIIRR | reduced or ablated | Yes |  | Yes | binding inhibition; also recorded: direct competition |
| VEGF-A121: commercial protein (Peprotech #100-20A) (protein) APMAEGGGQNHHEVVKFMDVYQRSYCHPIETLVDIFQEYPDEIEYIFKPSCVPLMRCGGCCNDEGLECVPTEESNITMQIMRIKPHQGQHIGEMSFLQHNKCECRPKKDRARQEKCDKPRR | unaffected | No | does not bind | No |  |
| VEGF-A145: commercial protein (R&D Systems #7626-VE-CF) (protein) APMAEGGGQNHHEVVKFMDVYQRSYCHPIETLVDIFQEYPDEIEYIFKPSCVPLMRCGGCCNDEGLECVPTEESNITMQIMRIKPHQGQHIGEMSFLQHNKCECRPKKDRARQEKKSVRGKGKGQKRKRKKSRYKSWSVCDKPRR | unaffected | No | does not bind NRP2 in our system | No |  |
